From patent US20250043302A1, “MUTATED HYDROXYPHENYLPYRUVATE DIOXYGENASE POLYPEPTIDE, AND CODING GENE AND USE THEREOF” (BEIJING DABEINONG BIOTECHNOLOGY CO., LTD., priority 2021, published 2025)

Tests used:
Format in all cases: in vivo
[1] = system: Arabidopsis thaliana T1 plants; test: Isoxaflutole tolerance of transgenic Arabidopsis thaliana T1 plants (spray, bleached leaf area grade, damage score); conditions: Table 11; for Classification and statistics of the grade of pesticide damage Grade 0: number of plants at grade 0; for Classification and statistics of the grade of pesticide damage Grade 1: number of plants at grade 1; for Classification and statistics of the grade of pesticide damage Grade 2: number of plants at grade 2; for Classification and statistics of the grade of pesticide damage Grade 3: number of plants at grade 3; for Scores: pesticide damage score;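 on Scores: Weighted damage index from 0 to 100 where higher means more damage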
Procedure, shortened: (§1)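 Damage was assessed by bleaching grade (0 none; 1 <50%; 2 >50%; 3 100% of leaf area) one week after spraying. Sprays on 18-day-old T1 and wild-type plants used field-rate multiples: topramezone 25–200, isoxaflutole 35–280, mesotrione 52.5–420 g ai/ha.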

[2] = system: Arabidopsis thaliana T1 plants; test: Mesotrione tolerance of transgenic Arabidopsis thaliana T1 plants (spray, bleached leaf area grade, damage score); parameters: Scores: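 damage score 0-100 computed as Σ(N×S)/(T×M)×100 over grades 0-3 with higher meaning more damage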; conditions: Table 12; for Classification and statistics of the grade of pesticide damage Grade 0: number of plants at grade 0; for Classification and statistics of the grade of pesticide damage Grade 1: number of plants at grade 1; for Classification and statistics of the grade of pesticide damage Grade 2: number of plants at grade 2; for Classification and statistics of the grade of pesticide damage Grade 3: number of plants at grade 3; for Scores: pesticide damage score
Procedure, shortened: as §1

[3] = system: Arabidopsis thaliana T1 plants; test: Topramezone tolerance of transgenic Arabidopsis thaliana T1 plants (spray, bleached leaf area grade, damage score); conditions: Table 10; for Classification and statistics of the grade of pesticide damage Grade 0: number of plants at grade 0; for Classification and statistics of the grade of pesticide damage Grade 1: number of plants at grade 1; for Classification and statistics of the grade of pesticide damage Grade 2: number of plants at grade 2; for Classification and statistics of the grade of pesticide damage Grade 3: number of plants at grade 3; for Scores: pesticide damage score
Procedure, shortened: as §1

B1: HPPDm-2-02: nucleotide sequence encoding Avena sativa HPPD with A111T+F372A+F383W; vector DBN11783 (nucleic acid)
DNA: ATGCCACCTACTCCAGCTACAGCTACTGGTGCTGCTGCTGCTGCCGTTACTCCTGAGCACGCTGCCAGGTCATTCCCCAGGGTGGTTCGCGTGAACCCCAGATCTGATAGGTTCCCAGTTCTGAGCTTCCACCATGTTGAGCTGTGGTGCGCTGATGCTGCTTCTGCTGCTGGCAGGTTCTCTTTCGCTCTTGGTGCTCCACTCGCTGCTAGATCTGATCTGTCTACAGGAAATAGCGCTCATGCCTCACTCCTGCTTCGCTCAGGTGCTTTGGCCTTCCTCTTCACCGCTCCATATGCTCCCCCACCTCAGGAGGCTGCTACTGCTGCTACTACAGCCTCCATTCCAAGCTTCTCAGCTGATGCCGCTAGAACCTTCGCTGCTGCTCATGGACTTGCCGTGAGGTCTGTTGGTGTTCGCGTGGCTGATGCTGCTGAGGCTTTCAGAGTTTCCGTTGCCGGCGGAGCTAGGCCAGCTTTCGCTCCTGCTGATTTGGGACATGGTTTCGGCCTGGCTGAGGTTGAGCTTTACGGTGACGTGGTTCTCCGCTTCGTGTCTTACCCAGATGAGACTGACCTGCCTTTCCTTCCCGGCTTCGAGAGAGTTTCCTCTCCTGGTGCCGTGGATTACGGCCTGACAAGGTTCGACCACGTGGTTGGAAACGTTCCCGAGATGGCTCCAGTGATCGATTACATGAAGGGCTTCCTTGGATTCCATGAGTTCGCCGAGTTCACTGCTGAGGACGTGGGAACCACTGAGTCCGGTTTGAACTCTGTGGTTCTCGCCAACAATTCTGAGGCTGTTTTGCTCCCTCTGAATGAGCCTGTGCATGGAACCAAGAGGAGAAGCCAGATTCAAACTTACCTGGAGTACCACGGTGGCCCTGGAGTTCAGCATATCGCCCTTGCTTCTAATGATGTGTTGCGCACACTCAGAGAGATGCGCGCCAGAACCCCCATGGGAGGTTTCGAGTTCATGGCCCCACCACAGGCTAAGTACTACGAGGGCGTTAGAAGGATTGCTGGAGACGTGTTGAGCGAGGAGCAGATCAAGGAGTGCCAAGAGCTGGGTGTTCTTGTGGATAGGGATGACCAGGGCGTTCTGCTTCAAATTGCCACTAAGCCAGTGGGCGACCGCCCTACATTCTGGCTTGAGATGATTCAAAGAATCGGCTGCATGGAGAAGGATGAGGTTGGACAGGAGTACCAAAAGGGCGGATGCGGTGGCTTCGGAAAGGGTAACTTCAGCGAGTTGTTCAAGTCAATCGAGGACTACGAGAAGAGCCTCGAGGTGAAGCAGTCAGTGGTTGCCCAAAAGTCCTGA
modifications: HPPDm-2-02 Nucleotide Sequence
notes: vector DBN11783
3: Classification and statistics of the grade of pesticide damage Grade 1 ([1]; isoxaflutole 280 g ai/ha (4×))
16: Classification and statistics of the grade of pesticide damage Grade 0 ([1]; isoxaflutole 140 g ai/ha (2×)) | Classification and statistics of the grade of pesticide damage Grade 0 ([2]; mesotrione 210 g ai/ha (2×)) | Classification and statistics of the grade of pesticide damage Grade 0 ([3]; topramezone 100 g ai/ha (4×)) | Classification and statistics of the grade of pesticide damage Grade 0 ([3]; topramezone 200 g ai/ha (8×))
1: Classification and statistics of the grade of pesticide damage Grade 2 ([1]; isoxaflutole 280 g ai/ha (4×))
2: Classification and statistics of the grade of pesticide damage Grade 1 ([2]; mesotrione 420 g ai/ha (4×))
12: Classification and statistics of the grade of pesticide damage Grade 0 ([1]; isoxaflutole 280 g ai/ha (4×))
4: Scores ([2]; mesotrione 420 g ai/ha (4×))
10: Scores ([1]; isoxaflutole 280 g ai/ha (4×))
0: Classification and statistics of the grade of pesticide damage Grade 1 ([1]; isoxaflutole 140 g ai/ha (2×)) | Classification and statistics of the grade of pesticide damage Grade 2 ([1]; isoxaflutole 140 g ai/ha (2×)) | Classification and statistics of the grade of pesticide damage Grade 3 ([1]; isoxaflutole 140 g ai/ha (2×)) | Scores ([1]; isoxaflutole 140 g ai/ha (2×)) | Classification and statistics of the grade of pesticide damage Grade 3 ([1]; isoxaflutole 280 g ai/ha (4×)) | Classification and statistics of the grade of pesticide damage Grade 1 ([2]; mesotrione 210 g ai/ha (2×)) | Classification and statistics of the grade of pesticide damage Grade 2 ([2]; mesotrione 210 g ai/ha (2×)) | Classification and statistics of the grade of pesticide damage Grade 3 ([2]; mesotrione 210 g ai/ha (2×)) | Scores ([2]; mesotrione 210 g ai/ha (2×)) | Classification and statistics of the grade of pesticide damage Grade 2 ([2]; mesotrione 420 g ai/ha (4×)) | Classification and statistics of the grade of pesticide damage Grade 3 ([2]; mesotrione 420 g ai/ha (4×)) | Classification and statistics of the grade of pesticide damage Grade 1 ([3]; topramezone 100 g ai/ha (4×)) | Classification and statistics of the grade of pesticide damage Grade 2 ([3]; topramezone 100 g ai/ha (4×)) | Classification and statistics of the grade of pesticide damage Grade 3 ([3]; topramezone 100 g ai/ha (4×)) | Scores ([3]; topramezone 100 g ai/ha (4×)) | Classification and statistics of the grade of pesticide damage Grade 1 ([3]; topramezone 200 g ai/ha (8×)) | Classification and statistics of the grade of pesticide damage Grade 2 ([3]; topramezone 200 g ai/ha (8×)) | Classification and statistics of the grade of pesticide damage Grade 3 ([3]; topramezone 200 g ai/ha (8×)) | Scores ([3]; topramezone 200 g ai/ha (8×))
Highly resistant: Resistance evaluation ([1]; isoxaflutole 140 g ai/ha (2×)) | Resistance evaluation ([1]; isoxaflutole 280 g ai/ha (4×)) | Resistance evaluation ([2]; mesotrione 210 g ai/ha (2×)) | Resistance evaluation ([2]; mesotrione 420 g ai/ha (4×)) | Resistance evaluation ([3]; topramezone 100 g ai/ha (4×)) | Resistance evaluation ([3]; topramezone 200 g ai/ha (8×))
14: Classification and statistics of the grade of pesticide damage Grade 0 ([2]; mesotrione 420 g ai/ha (4×))
